From paper PMC8948829, “The Escherichia coli Amino Acid Uptake Protein CycA: Regulation of Its Synthesis and Practical Application in L-Isoleucine Production” (Microorganisms, 2022)

Target: T1, Crp (CRP, cAMP receptor protein) (Escherichia coli (purified from strain SA500/pHA5)) (UniProt P0ACJ8)
T1 sequence: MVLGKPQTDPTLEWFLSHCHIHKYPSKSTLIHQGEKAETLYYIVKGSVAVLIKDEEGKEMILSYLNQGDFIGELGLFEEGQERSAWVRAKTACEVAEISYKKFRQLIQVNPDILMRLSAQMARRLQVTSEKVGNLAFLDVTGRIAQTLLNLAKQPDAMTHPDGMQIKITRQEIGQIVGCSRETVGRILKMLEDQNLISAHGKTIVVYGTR
Experiment: EMSA
Settings: 10 mM Tris-HCl pH 7.5, 1 mM EDTA, 100 mM KCl, 1 mM DTT, BSA (printed 10 g/mL), 5% glycerol, 20 uM cAMP, room temperature 30 min; 6% native PAGE, 1x TAE, 4 C

Sequence | binding
CGTTCAGCACCCTGGTGTTTGAAGTCGAACTGCTGGAAATCCTCTAAGCAGCGCATTCTGTTCCCCTCGAACGAGAGGGGAGCAGGCATTCAGCAATAAACCCTTCAGTTTGCCAAACGGCGCTATTTTGTGTTGCAAAGACCCCGTA (double strand) [PcycA fragment 3 (148 bp, no predicted Crp site)] | no binding
TGTTTAAAGTGAGTGTCATATCACGGTGATAACGCGAAACAGCTCACAAAAATACACGCTTACGGGGTCTTTGCAACACAAAATAGCGCCGTTTGGCAAACTGAAGGGTTTATTGCTGAATGCCTGCTCCCCTCTCGTTCGAGGGGAACAGAATGCGCTGCTTAGAGGATTTCCAGCAGTTCGACTTCAAACACCAGGGTGCTGAACG (double strand) [PcycA fragment 1 (208 bp)] | binds
